The target in the data set is Crp (CRP, cAMP receptor protein) (Escherichia coli (purified from strain …, UniProt P0ACJ8 1-210)). Put plainly: EMSA; 20 uM cAMP; 12 ng Crp, 50 ng probe; 10 mM Tris-HCl pH 7.5, 1 mM EDTA, 100 mM KCl, 1 mM DTT, BSA (printed 10 g/mL), 5% glycerol, 20 uM cAMP, room temperature 30 min; 6% native PAGE, 1x TAE, 4 C. Particulars: protein: recombinant; tags: none (native His residues used for Ni-NTA); chain copies: 2; label: 5'-TAMRA on strand 2 (primer P11); blunt.
Crp (CRP, cAMP receptor protein) (Escherichia coli, sequence (P0ACJ8 whole entry): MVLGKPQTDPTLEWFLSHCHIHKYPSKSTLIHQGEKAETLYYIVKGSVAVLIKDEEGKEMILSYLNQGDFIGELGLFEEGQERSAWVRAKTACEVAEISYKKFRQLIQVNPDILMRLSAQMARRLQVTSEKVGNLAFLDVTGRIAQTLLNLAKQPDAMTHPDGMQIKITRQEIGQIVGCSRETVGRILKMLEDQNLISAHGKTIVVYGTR

B1: PcycA fragment 2 (73 bp) (dsDNA)
DNA 1: CAAAGACCCCGTAAGCGTGTATTTTTGTGAGCTGTTTCGCGTTATCACCGTGATATGACACTCACTTTAAACA
DNA 2: TGTTTAAAGTGAGTGTCATATCACGGTGATAACGCGAAACAGCTCACAAAAATACACGCTTACGGGGTCTTTG
Regarding B1, the binding result was “binds”.

These data come from publication PMC8948829, “The Escherichia coli Amino Acid Uptake Protein CycA: Regulation of Its Synthesis and Practical Application in l-Isoleucine Production”.
